These results are taken from the supplement of paper PMC9112550, “Optimization of the antimicrobial peptide Bac7 by deep mutational scanning” (BMC Biology, 2022).

For the data set, the system named is Escherichia coli TOP10. The experiment in a line: shrunken log2 fold change of peptide-encoding DNA abundance (4.5 h post-induction vs induction); higher = less antimicrobial activity (less host growth inhibition). The settings on record: time post-induction: 4.5 h; library: site-saturation at positions 5, 18, 19, 20.
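Note: peptides expressed intracellularly from a pBAD plasmid library in pooled LB shake-flask culture, induced with 0.3% L-arabinose, DNA abundance read by NGS, three biological replicates, DESeq2 with apeglm shrinkage.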

Take RRIRTRPPRLPRPRPRPEGEPRP: the “shrunken log2 fold change” value is -0.0398.

Consider RRIRVRPPRLPRPRPRPMKNPRP, for which the “shrunken log2 fold change” value is -0.104. The same measure for RRIRNRPPRLPRPRPRPLHKPRP: -0.101; for RRIRNRPPRLPRPRPRPLQMPRP: -0.0999; for RRIRYRPPRLPRPRPRPERVPRP: -0.0107. For RRIRQRPPRLPRPRPRPVFDPRP, the “shrunken log2 fold change” value is -0.446. As for RRIRDRPPRLPRPRPRPWNYPRP, the “shrunken log2 fold change” value is -0.0121.

Turning to RRIRDRPPRLPRPRPRPCLRPRP, the “shrunken log2 fold change” value was -0.188. The same measure for RRIRMRPPRLPRPRPRPLFKPRP: -0.0689. On to RRIRYRPPRLPRPRPRPPHRPRP, for which the “shrunken log2 fold change” value was -0.0877. As to RRIRHRPPRLPRPRPRPPLIPRP, the “shrunken log2 fold change” value is -0.0533. Regarding RRIRIRPPRLPRPRPRPLELPRP, the “shrunken log2 fold change” value was -0.461. The same measure for RRIRMRPPRLPRPRPRPDPWPRP: 0.336.

For the sequence RRIRARPPRLPRPRPRPSERPRP, the “shrunken log2 fold change” value was -0.132. Turning to RRIRHRPPRLPRPRPRPNPVPRP, the “shrunken log2 fold change” value was -0.312. Then RRIRMRPPRLPRPRPRPLVHPRP, with 0.035; and RRIRLRPPRLPRPRPRPGLEPRP, with 0.11. Then RRIRGRPPRLPRPRPRPHDNPRP, with 0.174; and RRIRDRPPRLPRPRPRPRIWPRP, with 0.53; and RRIRWRPPRLPRPRPRPWWHPRP, with 0.357. For RRIRMRPPRLPRPRPRPILNPRP, the “shrunken log2 fold change” value was -0.248.

Turning to RRIRSRPPRLPRPRPRPGMHPRP, the “shrunken log2 fold change” value was -0.0823. The same measure for RRIRYRPPRLPRPRPRPGYNPRP: -0.0489. Then RRIRIRPPRLPRPRPRPWVTPRP, with -0.0476; and RRIRSRPPRLPRPRPRPHYKPRP, with -0.891; and RRIRLRPPRLPRPRPRPFYQPRP, with -0.161. Regarding RRIRVRPPRLPRPRPRPFQTPRP, the “shrunken log2 fold change” value was -0.214. The same measure for RRIRKRPPRLPRPRPRPNACPRP: 0.0357. The same measure for RRIRLRPPRLPRPRPRPACCPRP: 0.0218; for RRIRKRPPRLPRPRPRPELRPRP: 1.12; for RRIRCRPPRLPRPRPRPLVDPRP: 1.58. Then RRIRCRPPRLPRPRPRPNLVPRP, with -0.192; and RRIRVRPPRLPRPRPRPHFAPRP, with 0.0941. RRIRDRPPRLPRPRPRPTHKPRP: the “shrunken log2 fold change” value was -0.0994. Then RRIRSRPPRLPRPRPRPHSCPRP, with -0.0203; and RRIRWRPPRLPRPRPRPCWWPRP, with 0.22. Then RRIRFRPPRLPRPRPRPWRGPRP, with 0.172; and RRIRMRPPRLPRPRPRPRHDPRP, with 0.659; and RRIRHRPPRLPRPRPRPQVDPRP, with -0.0221.

In the case of RRIRVRPPRLPRPRPRPHFLPRP, the “shrunken log2 fold change” value was found to be 0.187. As to RRIRERPPRLPRPRPRPFRPPRP, the “shrunken log2 fold change” value is -0.179.

With RRIRIRPPRLPRPRPRPASFPRP, the “shrunken log2 fold change” value was -0.167. Then RRIRVRPPRLPRPRPRPSSFPRP, with -0.423.

For RRIRDRPPRLPRPRPRPFIGPRP, the “shrunken log2 fold change” value was -0.158. Then RRIRTRPPRLPRPRPRPSHDPRP, with -0.459. The same measure for RRIRARPPRLPRPRPRPKMAPRP: 0.291; for RRIRVRPPRLPRPRPRPFCCPRP: -0.0229. Then RRIRYRPPRLPRPRPRPAIHPRP, with -0.406; and RRIRCRPPRLPRPRPRPRGCPRP, with 0.395. Take RRIRDRPPRLPRPRPRPVGQPRP: the “shrunken log2 fold change” value stood at 0.435.
